Source: EP3443010B1
Values joined by “and” are separate entries in the source; they are usually repeats but may differ in a detail not shown here. Identical values can stand only once.

Molecular target: recombinant hSIRPa (Sino Biologicals, reference 10975-H08H) (human) (UniProt P78324)
Test: ELISA, hSIRPa (Sino 10975-H08H) coated at 0.5 ug/ml, anti-mouse Fc detection

Sequence of recombinant hSIRPa (Sino Biologicals, reference 10975-H08H) (human) (P78324 other isoform, or with tags, fused parts or gaps H08H H08H): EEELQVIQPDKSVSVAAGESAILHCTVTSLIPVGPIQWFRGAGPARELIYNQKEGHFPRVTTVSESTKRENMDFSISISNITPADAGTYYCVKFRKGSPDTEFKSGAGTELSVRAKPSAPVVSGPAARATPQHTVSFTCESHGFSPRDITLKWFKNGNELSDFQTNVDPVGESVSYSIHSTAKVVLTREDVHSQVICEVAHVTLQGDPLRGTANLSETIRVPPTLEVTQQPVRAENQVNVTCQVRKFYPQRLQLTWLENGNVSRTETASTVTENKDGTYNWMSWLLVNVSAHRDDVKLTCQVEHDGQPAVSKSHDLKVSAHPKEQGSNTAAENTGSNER

Question: With SE5A5 (antibody) as the substance, how does the EC50 read?
Answer: 0.16 nM and 0.024 µg/mL
